For 1 substance, cAMP activity in Rinm cells, EC50 results are on record in patent publication US20080044411A1.

The target of the assay is GLP-1 R expressed in Rinm cells. The assay can be described thus: cell-based or functional assay.

“GLP-1 peptide (from UniProt P01275 98-128)” had a cAMP activity in Rinm cells, EC50 of 0.4 nM.
